Measurements published in patent US7727972B2, “Methods for determining absorption of cobalamin or analogues thereof” (DrugTech Corporation, priority 2004, dated 2010).

T1: TC-bound 57Co cobalamin (cyanocobalamin-transcobalamin complex) (Homo sapiens, UniProt P20062)
T1 construct: from tissue; host or cells: human donor serum
T1 sequence (P20062 19-427): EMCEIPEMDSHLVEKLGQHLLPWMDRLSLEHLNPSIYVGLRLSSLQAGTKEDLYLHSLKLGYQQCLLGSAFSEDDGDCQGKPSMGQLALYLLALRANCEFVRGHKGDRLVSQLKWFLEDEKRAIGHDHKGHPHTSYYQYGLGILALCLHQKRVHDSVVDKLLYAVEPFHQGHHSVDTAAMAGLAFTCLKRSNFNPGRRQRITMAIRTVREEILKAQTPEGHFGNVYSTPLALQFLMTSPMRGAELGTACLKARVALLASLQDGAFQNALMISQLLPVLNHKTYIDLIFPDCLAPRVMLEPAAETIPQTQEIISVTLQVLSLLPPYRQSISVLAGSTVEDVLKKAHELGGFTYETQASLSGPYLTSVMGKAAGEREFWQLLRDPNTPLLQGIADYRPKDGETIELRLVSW


Legend:
[1] = target: T1, TC-bound 57Co cobalamin (cyanocobalamin-transcobalamin complex); assay: Release of 57Co cyanocobalamin from transcobalamin using proteases; assay type: biochemical; settings: 50 U protease, human donor serum, TC captured on antibody-coated magnetic microspheres; 15 min (chymotrypsin 45 min); FIG. 1
Procedure: 25 μl tracer solution and 2.5 μl cyanocobalamin solution were added to 400 μl human donor serum. Tris-HCl 0.1 M pH 7.4 was run as a control. After addition of 50 μl capturing reagent, the samples were incubated on a coulter mixer for 1 hour at room temperature. The samples were placed in a magnetic rack for 3 minutes for separation of the capturing reagent. Subsequently, the rack was inverted and incubated for another 3 minutes. The supernatant was discarded and 500 μl of washing buffer was added. The samples were vortexed and placed in the magnetic rack for 3 minutes. Subsequently, the rack was inverted again and the samples were incubated for another 3 minutes. After separation, the washing buffer was discarded and 50 U of subtilisin Carlsberg, in 200 μl Tris-HCl 0.1 M pH 7.4 5 mM Ca^2+, was added. After incubation for 15 minutes at 50° C. in a shaking water bath, the samples were put on a magnetic rack for 3 minutes for separation of the capturing reagent. The rack was inverted and incubated for another 3 minutes. The supernatant was discarded and the pellet was counted for 5 minutes on a gamma counter.
Similar experiments were performed with proteinase K (50 U) in Tris-HCl 0.1 M pH 7.4 5 mM Ca^2+ incubated at 37° C., thermolysin (50 U) in Tris-HCl 0.1 M pH 7.4 5 mM Ca^2+ 5 mM Zn^2+, and chymotrypsin (50 U) in Tris-HCl 0.1 M pH 7.4 incubated for 45 min. at 37° C. […]

[2] = system: Anti haptocorrin antibodies (ELISA); assay: Cross-reactivity of the haptocorrin ELISA towards other cobalamin binding proteins; design: species or system rabbit; settings: 100 nmol/L in the assay mixture
Procedure: Antibodies. Anti haptocorrin was produced by DakoCytomation A/S, Denmark by immunising rabbits with 200 μg pure haptocorrin produced as previously described (12) and deglycosylated as described above. The gamma globulin fraction was pre-pared (13) from serum obtained after 7 immunisations.
ELISA. The principle of the ELISA assay used was an immobilised capture antibody (0.1 ug gamma globulin/well, rabbit nr F7773) catching the analyte and a biotinylated detection antibody (gamma globulin 3 ug/L, rabbit nr 7772) visualised by avidin/Horse Radish Peroxidase (HRP). Colour development by addition of 3,3′,5,5′-tetramethyl-benzidin was proportional to the concentration of analyte. The assay procedure was as previously described for transcobalamin (14, 15). In brief, calibrator, sample or control (100 μL, final dilution 1:30) was incubated for 1 hour at room temperature prior to washing and incubation for 30 min with the biotinylated detection antibody. The attached biotinylated antibody was detected employing avidin/HRP and colour development was determined by measuring the absorbance at 420 nm and correcting for the absorbance at 620 nm. The calibrator employed was deglycosylated pure human haptocorrin. All samples were run in true duplicates, where deglycosylation was performed on two independent samples.
Samples. […]

Molecule	release of cyanocobalamin from its complex with transcobalamin (counts remaining in the sample) [1]	cross-reactivity in haptocorrin ELISA [2]
subtilisin Carlsberg: subtilisin Carlsberg from Bacillus licheniformis (EC 3.4.21.62) (Sigma Aldrich) (protein, UniProt P00780 106-379, looked up) Subtilisin Carlsberg: AQTVPYGIPLIKADKVQAQGFKGANVKVAVLDTGIQASHPDLNVVGGASFVAGEAYNTDGNGHGTHVAGTVAALDNTTGVLGVAPSVSLYAVKVLNSSGSGSYSGIVSGIEWATTNGMDVINMSLGGASGSTAMKQAVDNAYAKGVVVVAAAGNSGSSGNTNTIGYPAKYDSVIAVGAVDSNSNRASFSSVGAELEVMAPGAGVYSTYPTNTYATLNGTSMASPHVAGAAALILSKHPNLSASQVRNRLSSTATYLGSSFYYGKGLINVEAAAQ	most effective	–
transcobalamin: cobalamin binding protein; pure TC dissolved in phosphate buffer 0.1 M containing albumin 0.1% (protein, UniProt P20062 19-427, looked up) Transcobalamin-2: EMCEIPEMDSHLVEKLGQHLLPWMDRLSLEHLNPSIYVGLRLSSLQAGTKEDLYLHSLKLGYQQCLLGSAFSEDDGDCQGKPSMGQLALYLLALRANCEFVRGHKGDRLVSQLKWFLEDEKRAIGHDHKGHPHTSYYQYGLGILALCLHQKRVHDSVVDKLLYAVEPFHQGHHSVDTAAMAGLAFTCLKRSNFNPGRRQRITMAIRTVREEILKAQTPEGHFGNVYSTPLALQFLMTSPMRGAELGTACLKARVALLASLQDGAFQNALMISQLLPVLNHKTYIDLIFPDCLAPRVMLEPAAETIPQTQEIISVTLQVLSLLPPYRQSISVLAGSTVEDVLKKAHELGGFTYETQASLSGPYLTSVMGKAAGEREFWQLLRDPNTPLLQGIADYRPKDGETIELRLVSW	–	No cross-reactivity
Proteinase K: proteinase K from Tritrachium album (EC 3.4.21.64) (Sigma Aldrich) (protein, UniProt P06873 106-384, looked up) Proteinase K: AAQTNAPWGLARISSTSPGTSTYYYDESAGQGSCVYVIDTGIEASHPEFEGRAQMVKTYYYSSRDGNGHGTHCAGTVGSRTYGVAKKTQLFGVKVLDDNGSGQYSTIIAGMDFVASDKNNRNCPKGVVASLSLGGGYSSSVNSAAARLQSSGVMVAVAAGNNNADARNYSPASEPSVCTVGASDRYDRRSSFSNYGSVLDIFGPGTSILSTWIGGSTRSISGTSMATPHVAGLAAYLMTLGKTTAASACRYIADTANKGDLSNIPFGTVNLLAYNNYQA	most effective	–
